This note sets out measurements from patent US20250011363A1, “OPTIMIZED SHORTENED PEPTIDE THAT BINDS TO ACETYLCHOLINE RECEPTOR, AND USE THEREOF” (SKINMED CO., LTD., priority 2021, published 2025).

The assay concerns the target acetylcholine receptor. Description: SPR, receptor immobilized, peptide 10 uM.

The molecule KCNDKK [6mer-2-817] had a Binding affinity (RU) of 22 RU.
In turn, RYMERK [6mer-2-814] returned a Binding affinity (RU) of 28 RU.
The same measure for KYWEKK [6mer-2-867]: 32 RU; for KICGRK [6mer-2-815]: 30 RU; for RNTAKK [6mer-2-849]: 13 RU.
The same measure for RFWWKR [6mer-2-834]: 28 RU; for KYAEKK [6mer-2-827]: 13 RU.
The same measure for KTSMKR [6mer-2-850]: 16 RU; for RNCGKR [6mer-2-804]: 21 RU; for KDWDRK [6mer-2-840]: 15 RU.
Turning to RKHWRR [6mer-2-863], the Binding affinity (RU) was 17 RU.
Next, KMKEKR [6mer-2-845]: 14 RU; KHTEKK [6mer-2-857]: 20 RU.
Next, RTPNRR [6mer-2-868]: 30 RU; KYHNRR [6mer-2-832]: 32 RU.
For the molecule RPTMKR [6mer-2-821], the Binding affinity (RU) was 33 RU.
Next, RNKERK [6mer-2-803]: 18 RU.
Molecule KAMKRK [6mer-2-811] yielded a Binding affinity (RU) of 16 RU.
The same measure for KEPMRR [6mer-2-856]: 14 RU; for RDTMKK [6mer-2-805]: 12 RU; for RHTFKK [6mer-2-862]: 29 RU.
REMIKR [6mer-2-855] gave a Binding affinity (RU) of 19 RU.
Next, RHCGKR [6mer-2-835]: 20 RU.
Next, KMTEKK [6mer-2-870]: 21 RU; KPNFRR [6mer-2-860]: 31 RU.
Next, RMTERK [6mer-2-848]: 29 RU.
Molecule REPWRR [6mer-2-809] had a Binding affinity (RU) of 18 RU.
On to RDNPKK [6mer-2-866], for which the Binding affinity (RU) was 24 RU.
Consider RHCNRK [6mer-2-865], for which the Binding affinity (RU) was 16 RU.
The same measure for KNTMKR [6mer-2-836]: 26 RU; for RDPKKK [6mer-2-844]: 22 RU; for RMKKKR [6mer-2-828]: 32 RU.
Next, REDFRR [6mer-2-837]: 32 RU.
For KHTGRR [6mer-2-853], the Binding affinity (RU) amounted to 29 RU.
The same measure for KETKRR [6mer-2-802]: 24 RU; for RFSFKR [6mer-2-846]: 30 RU; for KIHARK [6mer-2-825]: 11 RU.
The same measure for REMPKR [6mer-2-871]: 31 RU.
Next, RHDHKR [6mer-2-869]: 18 RU; KTPERK [6mer-2-818]: 13 RU.
Regarding RCTVRK [6mer-2-838], the Binding affinity (RU) stood at 13 RU.
The same measure for RCTAKK [6mer-2-822]: 13 RU.
KPPEKR [6mer-2-812] came in with a Binding affinity (RU) of 33 RU.
Next, KKKIRR [6mer-2-829]: 22 RU; RPNNKK [6mer-2-820]: 24 RU; RKCAKK [6mer-2-864]: 12 RU.
Next, RMDFRK [6mer-2-859]: 21 RU; RKKFKK [6mer-2-808]: 21 RU; KIWNRK [6mer-2-807]: 28 RU.
The same measure for KHCVRK [6mer-2-806]: 30 RU.
Molecule KHAKKK [6mer-2-810] displayed a Binding affinity (RU) of 18 RU.
Molecule KTHFRK [6mer-2-872] gave a Binding affinity (RU) of 28 RU.
The same measure for KPNHRK [6mer-2-841]: 33 RU; for RITNKR [6mer-2-824]: 26 RU.
Turning to RKTWRR [6mer-2-833], the Binding affinity (RU) came to 14 RU.
The molecule KNHNRR [6mer-2-839] returned a Binding affinity (RU) of 32 RU.
The same measure for RCNWKR [6mer-2-854]: 23 RU; for KEEHRR [6mer-2-858]: 30 RU.
The same measure for KPKMRR [6mer-2-842]: 22 RU.
Next, KFWWRR [6mer-2-851]: 19 RU.
Consider RNCERR [6mer-2-852], for which the Binding affinity (RU) came to 28 RU.
The same measure for KFSVRR [6mer-2-819]: 23 RU.
The same measure for KKMDRR [6mer-2-813]: 29 RU; for RMKFKR [6mer-2-830]: 21 RU.
Next, KAPDRK [6mer-2-843]: 33 RU.
The molecule REDWRK [6mer-2-823] gave a Binding affinity (RU) of 25 RU.
The same measure for KDTDRK [6mer-2-861]: 21 RU.
The same measure for RNTPRK [6mer-2-826]: 11 RU; for RKMGKR [6mer-2-816]: 15 RU.
The same measure for RYCHKR [6mer-2-847]: 22 RU.
In turn, RMTWRK [6mer-2-831] yielded a Binding affinity (RU) of 29 RU.
